Data from publication PMC3377380 (Molecular Membrane Biology, 2012).

T1: GST-Obsc_(6316–6345) (Rattus norvegicus)
T1 chain: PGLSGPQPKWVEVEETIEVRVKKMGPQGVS


Key:
[1] = target: T1, GST-Obsc_(6316–6345); experiment: SPR
[2] = target: GST-Obsc_(6231–6260) (Rattus norvegicus); experiment: SPR

Binder	fold decrease in kon against wild type [2] [fold]	further results
sAnk1-MBP I102A (domain or fragment) VKGSLCFVLKHIHQELDKELGESEGLSDDEETISTRVVRRRVFLKGDELQNIPGEQVTEEQFTDEQGNIVTKKAIRKVVRQVDSSGAIDTQQHEEVELRGSGLQPDLIEGRKGAQIVKRASLKRGKQ	–	fold reduction in kon against wild type [1]: ~3 fold
sAnk1-MBP F71A (domain or fragment) VKGSLCFVLKHIHQELDKELGESEGLSDDEETISTRVVRRRVALKGDELQNIPGEQVTEEQFTDEQGNIVTKKIIRKVVRQVDSSGAIDTQQHEEVELRGSGLQPDLIEGRKGAQIVKRASLKRGKQ	~2	–
sAnk1-MBP I103A (domain or fragment) VKGSLCFVLKHIHQELDKELGESEGLSDDEETISTRVVRRRVFLKGDELQNIPGEQVTEEQFTDEQGNIVTKKIARKVVRQVDSSGAIDTQQHEEVELRGSGLQPDLIEGRKGAQIVKRASLKRGKQ	~2	–
sAnk1-MBP (wild type, sAnk1 residues 29–155) (domain or fragment) VKGSLCFVLKHIHQELDKELGESEGLSDDEETISTRVVRRRVFLKGDELQNIPGEQVTEEQFTDEQGNIVTKKIIRKVVRQVDSSGAIDTQQHEEVELRGSGLQPDLIEGRKGAQIVKRASLKRGKQ	–	Kd [1]: ~0.13 µM
